Laboratory results from a protein production outcome set (Wang et al. 2014).

Assay: label from the status in PepcDB records
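Also: failed if final PepcDB status was selected cloned or expressed and not failed if soluble or beyond.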

| Sequence | protein production |
| --- | --- |
| MASKPEKRVASSVFITLAPPRRDVAVSEEVGQAACEARRARPWEMLPTKTPGAAVGRSPKTWTPSGKTNASLSGVTPQLSNGGCSLPPPSLNEEDLDLPPPPPPPSAYLPLPEEEPPVLPGKSLISDLEQLHLPPPPPPPPPQAPSKGSSVHPPPGHAIPSEEELPPPPEEPVTLPEREVSTDVCGFCHKPVSPRELAVEAMKRQYHAQCFTCRTCRRQLAGQRFYQKDGRPLCEPCYQDTLEKCGKCGEVVQEHVIRALGKAFHPPCFTCVTCARCISDESFALDSQNQVYCVADFYRKFAPVCSICENPIIPRDGKDAFKIECMGRNFHENCYRCEDCSVLLSVEPTDQGCYPLNDHLFCKPCHLKRSAAGCC | failed |
| MAEHPIQGLMETAMESIKEMVDVNTIVGDAVQAPDGTVIIPISKVTFGFAAGGGEFASCCSVDEKGEDSSDDSSKPEIKFPFAGGSGAGVSINPVAFMVVGQGQIKLLPVNINSSLEKILDLIPEIIEKTKDSVKKNLKVKKEIKPGNGESCAKSSKEDENELEHHHHHH | not failed |
| MPSQLGITLKQVRLQQHLSQATVATGICAQSMLSAIENGKYTPNATLLMRLCQRLKISLDQLSLAENFTISDLEQINDRLAKLCNHHRYADLREFLLTDAVQARLTTDVQLAAYYYYLGITDFQLGHLTDAQQQFQLALASAPAQHRTTLSRLCWMSLALIHASRQQANASEEAMTQAVTQLKTAPYEANLNSLFYLAAVSHLKLNQLTIAAQWLERGIDFATDHDSHYMLANDYHLLAVIASRSEQIDQQRTAQATEHVLTTLFHESIYDRLD | failed |
| MKTREEKMNKTILLLACLLGLVACSSQYIMSTKDGKMITSDSKPKLDKTTGMYLYYDEDGREVMIKQEDVTQIIERLEHHHHHH | not failed |
| MTQVIIDGDACPVTNSIIELTKGTGIFVTVVRSFSHFSTVIQPEHVNIIYVDDGPDAVDYRIVKLVHSDDLVVTQDYGLASLLLNKAKIVMHHKGLEHHHHHH | failed |
| MEKQIFCQFLVVMMLLSSSQIQGDLRKGCYDLGITVLMGCPDSIDKKLPAPPTPSEGCCTLVRTIGMKCVCEIVNKKIEDTIDMQKLVNVAAACGRPLAPGSQCGSYRVPGA | failed |
| MALRLALSLCVYLLFTQGAQGNTDDFDCVEIYKQPAFQHPLLKDHKIQETFSLDGKIERSNKYNTKEHCPKGTVAILRQRNVSKGVHLNTAEYSGQHFATIETILDGSIYRGAEADISIHDLKLQNNQYSKSQIWLENGPPGQLNSIQAGLAVHPRLYGDSVTRFTIYWTGDGYQKTGCYNTQCPGFVVVSRNSRIGSGFWGTSVYGKTSLTFKLQVFQDGFSGNWALKMFDEVIGYWPKELFSHLNNGASLVRYGGNTFESPDGISPPMGNGFFPVADFKKTAHFNNVVVINSDYKRVYIEGRKIRLYVDSYNCFRATYWGYTKSTGEAFSFGGPGGNCGF | failed |
| EGQPLTRLKHMEPRLMAELGGLCAKLDKALAHFDHPGLARTLQWDPQHAGALIDHLLPVLQDGGQRARIEHATRQANEHLMPLVDQLPSQAVHLDITDDNTVWARDAQRQWQLQGVIDFGDLLRTWRIADLSVTCAALLHHAEGDPLRILPAVQAYQALNPLTEAELRALWPLVLNRAAVLVLSSEQQLTVDPGNQYTRDNIAHEWEIFDTATAVPFALMEAAILQAAGLQPAAP | failed |
| MTKRHVSLPADAKDVRRAFVSGVDERLSAAETPDELATAVTGTLADLRGERDAYEAWRDGDDVRPAAAARLATLDPRNASLESEYYAEKDEAAFARSKPLQWLWRQFDTTPLADNVDVALPFRRMLAGHLFAGVGEDVRLFKGITMTYGHNIELGDNAVVHDGVHLDDRGELVVGARASVSNGAHLYTHDHDVVDQTDVTNYRTEIGADARVTQGALVRAGVRVGENALVGSRSVVQGDVPAHHIAVGSPAESVRVKPGWEAVAAPLDAGGERRQAERRLDDAVPADAAVYDEFQRDRSPPGER | failed |
| MAKQIIVTDSTSDLSHEYLKQHNIHVIPLSLTIDGKSYTDQVDISSSEYIDHIENDADVKTSQPPIGRFIETYEQLAQDDVEIISIHLSSGLSGTYNTAVQASHMVDGNITVIDSKSISFGLGYQIKQIVELISQGTSTEEIVKEMTQLRDNLQLFVVIGQLNQLIKGGRISKTKGLIGNIMKIKPIGTLRDGKLELVHNSRTQNSSVQYLKKEITDFVKDHKIKSIGIAHANVKDFVDKIIKSFTESFDFSQFDINVTTPVISTHTGQGAIGLVVLRDTLN | failed |
| MKHLNIYIMLLGFSIFTGATFNLAKYTVGYFSPSSSAAWRFGLAAAVMLIILIFTEGIKKSQLRKNAVSYIVLGIIGIFGFNALFFVGLKYTSPVNGALIMGLNPLLTAILARIILKDNMTKKQVLGIFFAFIGVLLVITQGSIETIKTLSISGGDLIIFTGNVCWALYGVLGRRFVKDGTPLSTTTYTMVIGAVSLIVVSLFTSKPVSLSNIPIGVWGAIAFMAFFTSVLGYLWWNQGIKEIGASKTSLFFNLVPVVTMIISFAVGTPIKVFQVIGAVLVILGVLTASGVIRIPKYNTKEQSAI | failed |
| MSLANQTTKTLGLVMPSSASKAFQNPFFPEVIRGISSFAHVEGYALYMSTGETEEEIFNGVVKMVQGRQIGGIILLYSRENDRIIQYLHEQNFPFVLIGKPYDRKDEITYVDNDNYTAAREVAEYLISLGHKQIAFIGGGSDLLVTRDRLAGMSDALKLADIVLPKEYILHFDFSRESGQQAVEELMGLQQPPTAIMATDDLIGLGVLSALSKKGFVVPKDVSIVSFNNALLSEIASPPLSTVDVNIYQLGYEAAKALVDKVENAESTAKCIIIPHKLLKRQTCEGHHHHHH | not failed |
| MSAQVPRELLQLREQVRRQPGDFVAWLMLADAELGMGVTAAGETAVQRALALHPGHPEAVARLGRVRWAQQRHAEAATLLQQASDLVPQHPGIALWLGHALEDAGQPEQAAAAYTRAHKLLPDEPYITAQLLNWRRRLCDWRELDSLAAQVRTAVTQGEAAVEPFAFLSEDASAAEQLACARTRAQAIASSVHPLPAATLRSRGTLQLGFVSNGFSAHPTGLLTVALFEALRRRQPDLQVQLFATSPDDGSDIRARLAQATRMHDVTALGHLATAQHIRNQGIDLLFDLRGWGGGGRPEVFALRPAPVQLNWLAYPGTSGAPWMDYVLGDAIALPTWLEPFYSEQVLRLPRAFQPSDTSRTVAEAPSRAQCGLPDHAVVLCCFNNSYKLNPRSMARMLAVLRAVPGSVLWLLSGPGEADARLRAAAQAQGVHAQRLVFMPKLPHPQYLARYRHADLFLDTHPYNAHTTASDALWAGCPVLTTPGQTFAARVAGSLNHRLGLDEMNVADDATFVAKAIELASDAEALRGVRAQLAEQRLRSGLFDMDGFADDLAALLRGIAQRRGWLGV | failed |
| MKSADQLMSDIQLSLQALFQKIQPEMLESMEKQGVTPAQLFVLASLKKHGSLKVSEIAERMEVKPSAVTLMADRLEQKNLIARTHNTKDRRVIDLSLTDEGDIKFEEVLAGRKAIMARYLSFLTEEEMLQAAHITAKLAQAAETDEKQNMKRGNG | not failed |
| MSLSKPLFIFEMANNHMGNVEHGVALIRAIRESCQGFDFDFGFKLQYRNLDTFIHSSFKGRDDVKYVKRFEETRLQPEQMQKLVAEMKANGFKAICTPFDEESVDLIEAHGIEIIKIASCSFTDWPLLERIARSDKPVVASTAGARREDIDKVVSFMLHRGKDLTIMHCVAEYPTPDDHLHLARIKTLRQQYAGVRIGYSTHEDPDLMEPIMLAVAQGATVFEKHVGLPTDQYGINNYSANPEQVRRWLAAAARALAMLGDGEDDAVSETEQASLRSLRRGVFATRPVAAGEALTADNVSFAFPPVEGQLTANEWSKYVRYTAKTPIAADAPVMAADLEPVNEGHHHHHH | not failed |
| MKSLTPHLLLCSFFTSIAPALGEGFRNKRVAFIPTAAAHEEYTAYVDSARSSWKELGSNITDVDIARMPLRTATEALEQAEIIYLSGGNSFYLLDCLRSTEIDQIIRGRLAEGAILVGESAGAIVCSPNIAYIQPMDRVPDNYSQADYTGLNLVDFFPVPHYLAPPFVKSSKEVVAQHASLPLELMNNAEAVIVEGPQRTKISSEHQ | failed |
| MIFLSTVLILCCTWYFLKFLAHFSRKIHDEVRKLSVYTHFLSKWLQSAPATFTYTAIFCAFTLVQRTAPQHLINILTNHSSTSIARVSDKPISTFFDSAFWVADNGAGLLIYVVLFWTVIAWAERKYGSPRMIVITLSGHILASLTTIFLELWAINSGRAPSSLAMATDVGVSYILVAGCAAAILIMRKRMFYIGLIILGLFILLPLFVEHSIWDMGHLFAAFFGFISARLLLKLSPVRTVSSPYELLLKCRSELSNK | failed |
| MAVTHRTRRPLRAANKTTNAASLGATCSRQQRARLVHCVGRRTNCLAPALCSPRFTAIPRWSSNAMSMSLADARYLFNRILGLIHRSMASMRTRGWRATWQRIRVHTQAPPVALGTPLWLPQPAPFAAFALPHSAAPRVSVVIPVYNHIAHTLACLRSLAAHPPLVDVEIIVVDDGSSDATAEQLPQVAGLHYHLRASNGGFIAACNDGIALARGDFVVLLNNDTIPQPGWLDRLIDTFAQHPSAGLIGAQLVYPDGRLQESGGVVFGDGSAWSYGRFESSDDPRYAYVRAMDYCSGAAIALPRTLLQTLGGLDRRYMPAYYEDTDLAFAVRAAGYQVLVQPASVVVHDEGTSNGTDTRTGVKAYQVRNQNVFAEKWQQALKAQLPVGTVPGPALLHRGQRQVLILDECVPQPDRDSGSLRQFNLIRLLREEGAHVVFVPTRREHAGRHTQALQQLGAEVWYAPFLEGVGSWLRTHGARFAVVLLVRHHVAHACLPLLKQYAPQARTLFDTVDLHYLRERRGAEVAGDANLLHGAERTRLRELEIMAATDVTLLVSAAEQAQLRTDAPHIRTALLSNLHDVAGSGHSFAQRRDLVFVGGFRHPPNVDAVQWFISAIFPQVRAQLPDVVFHCIGADLPDALKLLADECTGVQLHGHVPDLVPFMDNARIAVAPLRFGAGVKGKINLSMAHGQPVVGTTCAVEGMHLRDGEDVCVADDANAFAAAIVRLYQDAALWQRLADNGLRNVAEYFSLDAARATVRALFIAE | failed |
| MLVVYIALMICTMTPVLALQAGADMSVLVWLVFGLVIVKAVLLVDHFMEMKHAPWGWRMAAQGWAVVVVSVLAGIHLAG | failed |
| MVRIRWFFIRHAESEANVVERWRIAGRSEAARLTERGERQARVVGEAVAIRLEQVLRVDGGDAGGVSGDAGRRRVLAPVAFTSPLLRARQTAALVLEQVAQPVKLEPVDDLAEVYQGLWEDALRSEVHTPETLQAMARNPYEFRAPGGEAQADVERRVLRAVSRMSQRVLSLLSLELEENEQTDVIVLVFTHGYVCKCLIRSVLDASPHLTGQIQVDNGALVELWLEPAAQQGALTSAAELGMWTVLRINDTWGQLTASMR | failed |
| MADSSRADFWEQRYREGVTPWEGGQLPPRARAFFAAQRPLRVLMPGCGSAADLPPLLAMGHDVLAVDFSEAAIELAARQWPEAAGRLLLADFFQLQMPAFDCLFERAFLCALPVGMRSQYAERVAALIAPGGALAGVFFVADTERGPPFGMQAEALRELLSPWFELEEDLALDESVAVFRNRERWMVWRRRGFDLGQVSEHESTGNCGAHRKE | failed |
| MKRKTAVKWLAVLAGAGLLYWGNKTYLNVSPKEIRVWVLSFGVFAPLMFIGISIVRPLVLFPVSVISIAGGLAFGPLLGTLYTLFGSMCASAVSFFAAGLFSAKKNGHYERLEAIQKQMEDNGFFYIFLLRILPINFDFVSYAAGLSNVKALPYFAATAVGIIPGTIALNVLGASFLAGNLPAFFMVLALYIVFISLPFIFRKKMQNLFQESN | failed |
| MSGDILNDIVAACLELERKASSVFKMFAAHAGSDEARRFWETVADETRHHSAVYERLQERGGRENLPIIIYKPAETLEELEMIGKSIDEQVERYTEAPSSEAACLLGFRLQLYLLHPAFASLCRLTRDASGEDLPDIGYGRYLRRFIDGIGSCGLATAETELLGEALFRLWNEARQLAAQSHFDALTGVMTRAGFFKTVGSLAYAAQRSGSNVGIMLIDLDYFKLVGDNYGHQTGDRILQLVAETITSHLRRSDVVGRYDGDEFVVYLSPVEPASLRTVAENLRRSIEEESARMVPVTASIGVAQGILGTDVDGGIEELVRLADECLMQAKYTGKNKVVVK | not failed |
